In patent publication US20250250357A1 (NANJING ZAIMING PHARMACEUTICAL, published 2025):

T1: human MSLN-R1-his protein (human, UniProt Q13421 296-390)
T1 construct: Region 1 of human MSLN, His-tagged; also called human MSLN-R1 protein; hMSLN-R1-his; not shown: His tag
T1 chain: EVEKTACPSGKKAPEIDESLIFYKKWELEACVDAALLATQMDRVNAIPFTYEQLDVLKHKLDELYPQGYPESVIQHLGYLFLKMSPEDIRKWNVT

B1: S009-F1.57.1 (antibody, human IgG1, kappa, V domains shown)
VH: EAQLQQSGAVFVKPGASVKLSCTASGFSSKDIFLHWVKQRPEQGLEWIGRIDPASDNTIYDPKFQDRATITSDRSSNTAYLQFSSLTSEDTAVYFCLYFDFWGQGTTLTVSS
VL: DIVMTQATPSISVTPGESVSISCRSSESLLHSNGNTYLYWFLQRPGQSPQLLIYRMSNLASGVPDRFSVSGSGTAFTLRISRVEAEDVGVYYCMQHLEYPLTFGAGTKLELKR
notes: Human-murine chimeric antibody, human IgG1/kappa constant regions
B2: S009-F1.56.1 (antibody, human IgG1, kappa, V domains shown)
VH: EVQLQQSGAEVVKPGASVKLSCTASGFNIRHTYMHWVKQRPEQGLEWIGRIDPANGNTEYDPKFQGKATITADTSSNTAYLQLSSLTSEDTAVYYCARDGWYIDVWGAGTTVTVSS
VL: DIVMSQSPSSLAVSVGEKVTMSCKSSQSLLYSNNQKNYLAWYQQKPGQSPKLLIYWASTRESGVPDRFTGSGSGTDFTLTISSVKAEDLAVYYCQRYYSYPWTFGGGTKLEIKR
notes: as for B1
B3: S009-F2.39.3 (antibody, human IgG1, kappa, V domains shown)
VH: QVQLQQPGTELVKPGASVKLSCKASGYTFTNYWMHWVKQRPGQGLEWIGNINPSSGDSYYNERFMSKAKMTVDKSSSTAYMQLSSLTSEDSAVYYCARSGGLWLAFWGPGTLVTVSA
VL: DIVMTQSPSSLAMSVGQKVTMSCKSSQTLLNSVSQNNYLAWYQQKPGQSPTLLVYFASTRESGVPDRFIGGGSGTDFTLTISSVQAEDLADYFCQQHYRTPYTFGGGTNLEIKR
notes: as for B1
B4: S009-F2.58.8 (antibody, human IgG1, kappa, V domains shown)
VH: QVQLLQSGAELAKPGASVKLSCKASGYTFTSYWVHWVKQRPGQGLEWIGYINPNSGYTKYNQKFKDKATLTADKSSSTAYMQLSSLTYEDSAVYYCADHYYGSSRDYFDYWGQGTTLTVSS
VL: QIVLTQSPAIMSASPGEKVTMTCSASSSVSYMYWYQQRPGSSPRLLIYDTSNLASGVPVRFSGSGSGTSYSLTISRMEAEDAATYYCQQWNSYPYTFGGGTKLEIKR
notes: as for B1
B5: S009-F2.47.1 (antibody, human IgG1, kappa, V domains shown)
VH: QVQLQQPGAELVKPGASVKLSCKASGYTFTSYWMHWVKQRPGQGLEWIGMIHPNSGSTNYNEKFKSKATLTVDKSSSTAYMQLSSLTSEDSAVYYCARPVVPYWYFDVWGTGTTVTVSS
VL: DIVMTQSQKFMSTTVGDRVSITCKASQNVGTAVAWYQQKPGQSPKLLIYSASNRYTGVPDRFTGSGSGTDFTLTISNMQSEDLADYFCQQSSSYPLTFGAGTKLELKR
notes: as for B1
B6: S009-F2.23.12 (antibody, human IgG1, kappa, V domains shown)
VH: QVQLQQPGTELVKPGASVKLSCKASGYTFTNYWMHWVKQRPGQGLEWIGNINPSNGGPYYNERFRSKATLTVDKSSSTAYMQLSSLTSEDSAVYYCARPYYGSSYGYFDYWGQGTTLTVSS
VL: DIQMTQSPSSLSASLGGKVTITCKASQDINKYIAWYQHKPGKGPRLLIHYTSELQPGIPSRFSGNGSGRDYSFSISNLEPEDIATYYCLQYANPLRTFGGGTKLEIKR
notes: as for B1
B7: S009-F2.21.4 (antibody, human IgG1, kappa, V domains shown)
VH: EVQLQQSGPELVKPGASVKIPCKASGYTFTDYNMDWVKQSHGKSLEWIGDINPNNGGSIYNQRFKGKATLTVDKSSSTAYMELRSLTSEDSAVYYCARRAYYSTGYFDVWGTGTTVTVSS
VL: QIVLTQSPALMSASPGEKVTITCSASSSISYMHWFQQKPGTSPKLWIYSTSTLASGVPARFSGSGSGTSYSLTISRMEAEDTATYYCQQRSSYPPTFGGGTKLEIKR
notes: as for B1

Target: T2, human MSLN-R3-his protein (human, UniProt Q13421 487-598)
T2 construct: Region 3 of human MSLN, His-tagged; also called human MSLN-R3 protein; hMSLN-R3-his; not shown: His tag
Test: ELISA, coated MSLN-R3

T2 sequence (Q13421 495-606): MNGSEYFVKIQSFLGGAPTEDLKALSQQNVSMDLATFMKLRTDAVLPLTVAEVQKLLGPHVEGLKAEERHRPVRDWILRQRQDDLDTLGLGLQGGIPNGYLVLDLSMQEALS

| Binder | OD450 at 0.0001 nM [OD450] | OD450 at 0.001 nM [OD450] | OD450 at 0.01 nM [OD450] | OD450 at 0.1 nM [OD450] | OD450 at 1 nM [OD450] | OD450 at 10 nM [OD450] | OD450 at 100 nM [OD450] | OD450 at none (no antibody) [OD450] |
| --- | --- | --- | --- | --- | --- | --- | --- | --- |
| B1 | 0.05 | 0.05 | 0.06 | 0.19 | 0.86 | 1.81 | 2.25 | 0.05 |
| B2 | 0.05 | 0.04 | 0.04 | 0.05 | 0.04 | 0.05 | 0.06 | 0.06 |

Target: T3, human MSLN-FL-his protein (human, UniProt Q13421 296-580)
T3 construct: also called human MSLN full-length protein; hMSLN-FL-his; not shown: His tag
Test: ELISA, coated MSLN full-length;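 note: binding of chimeric antibodies to plate-bound antigen, read by TMB colour after acid stop, antibody incubated 2 h at 37 °C, negative control antibody run alongside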

| Binder | OD450 at 0.0001 nM [OD450] | OD450 at 0.001 nM [OD450] | OD450 at 0.01 nM [OD450] | OD450 at 0.1 nM [OD450] | OD450 at 1 nM [OD450] | OD450 at 10 nM [OD450] | OD450 at 100 nM [OD450] | OD450 at none (no antibody) [OD450] |
| --- | --- | --- | --- | --- | --- | --- | --- | --- |
| B3 | 0.05 | 0.05 | 0.08 | 0.42 | 1.57 | 2.37 | 2.53 | 0.06 |
| B4 | 0.05 | 0.06 | 0.09 | 0.4 | 1.56 | 2.47 | 2.87 | 0.06 |
| B5 | 0.06 | 0.1 | 0.45 | 1.78 | 2.31 | 2.4 | 2.57 | 0.06 |
| B6 | 0.05 | 0.06 | 0.24 | 1.27 | 2.21 | 2.5 | 2.72 | 0.06 |
| B7 | 0.05 | 0.09 | 0.41 | 1.93 | 2.46 | 2.56 | 2.95 | 0.06 |

Target: T4, human MSLN-R2-his protein (human, UniProt Q13421 391-486)
T4 construct: Region 2 of human MSLN, His-tagged; also called human MSLN-R2 protein; hMSLN-R2-his; not shown: His tag
Test: ELISA, coated MSLN-R2;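 note: chimeric antibodies bound to blocked coated plates for 2 h at 37 °C, TMB colour development stopped with HCl, with a negative control antibody for comparison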

T4 sequence (Q13421 other isoform, or with tags, fused parts or gaps): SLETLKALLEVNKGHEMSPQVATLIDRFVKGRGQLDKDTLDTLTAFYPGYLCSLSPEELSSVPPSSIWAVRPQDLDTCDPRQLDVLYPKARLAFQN

| Binder | OD450 at 0.0001 nM [OD450] | OD450 at 0.001 nM [OD450] | OD450 at 0.01 nM [OD450] | OD450 at 0.1 nM [OD450] | OD450 at 1 nM [OD450] | OD450 at 10 nM [OD450] | OD450 at 100 nM [OD450] | OD450 at none (no antibody) [OD450] |
| --- | --- | --- | --- | --- | --- | --- | --- | --- |
| B1 | 0.05 | 0.04 | 0.04 | 0.07 | 0.04 | 0.05 | 0.11 | 0.05 |
| B2 | 0.04 | 0.05 | 0.19 | 0.88 | 2.04 | 2.31 | 2.62 | 0.05 |

Target: T1, human MSLN-R1-his protein
Test: ELISA, coated MSLN-R1;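 note: serially diluted chimeric antibodies bound to the coated, BSA-blocked plate for 2 h at 37 °C, with TMB colour read after acid stop and a negative control antibody alongside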
Protocol: (§1) The plate was sealed with a plastic film and incubated at 4° C. overnight. The next day, the plate was washed twice with PBST, and a blocking buffer [PBS+2% (w/w) BSA] was added for blocking at room temperature for 2 h. The blocking buffer was discarded, and a chimeric antibody or negative control antibody serially diluted from 100 nM was added at 50 μL/well. After incubation at 37° C. for 2 h, the plate was washed 3 times with PBST. […] After incubation at 37° C. for 2 h, the plate was washed 5 times with PBST. A TMB substrate was added at 50 μL/well for incubation at room temperature for 5-10 min, and then a stop solution (1.0 N HCl) was added at 50 μL/well.

| Binder | OD450 at 0.0001 nM [OD450] | OD450 at 0.001 nM [OD450] | OD450 at 0.01 nM [OD450] | OD450 at 0.1 nM [OD450] | OD450 at 1 nM [OD450] | OD450 at 10 nM [OD450] | OD450 at 100 nM [OD450] | OD450 at none (no antibody) [OD450] |
| --- | --- | --- | --- | --- | --- | --- | --- | --- |
| B3 | 0.05 | 0.05 | 0.05 | 0.05 | 0.05 | 0.06 | 0.07 | 0.06 |
| B4 | 0.05 | 0.05 | 0.05 | 0.06 | 0.13 | 0.43 | 0.83 | 0.06 |
| B5 | 0.05 | 0.05 | 0.05 | 0.05 | 0.09 | 0.23 | 0.36 | 0.06 |
| B6 | 0.05 | 0.05 | 0.06 | 0.05 | 0.05 | 0.05 | 0.06 | 0.06 |
| B7 | 0.05 | 0.05 | 0.05 | 0.05 | 0.05 | 0.05 | 0.06 | 0.06 |

Target: T5, human MSLN-R3-3 polypeptide (human)
T5 construct: also called human MSLN-R3-3 protein; hMSLN-R3-3
Test: ELISA, coated MSLN-R3-3;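 note: chimeric antibodies in serial dilution bound to plate-coated antigen for 2 h at 37 °C, with a negative control antibody alongside, and TMB colour development stopped with HCl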
Protocol: as §1

| Binder | OD450 at 0.0001 nM [OD450] | OD450 at 0.001 nM [OD450] | OD450 at 0.01 nM [OD450] | OD450 at 0.1 nM [OD450] | OD450 at 1 nM [OD450] | OD450 at 10 nM [OD450] | OD450 at 100 nM [OD450] | OD450 at none (no antibody) [OD450] |
| --- | --- | --- | --- | --- | --- | --- | --- | --- |
| B1 | 0.06 | 0.07 | 0.07 | 0.07 | 0.07 | 0.07 | 0.11 | 0.07 |
| B2 | 0.07 | 0.07 | 0.08 | 0.06 | 0.07 | 0.08 | 0.12 | 0.07 |
